Laboratory results as given in US7605127.

Legend:
[1] = biological target: c-met protooncogene product (HGF receptor) on B5/589 human mammary epithelial cells (human) (UniProt P08581); test: cell-based or functional assay
[2] = biological target: c-met protooncogene product (HGF receptor) on B5/589 human mammary epithelial cells (human) (UniProt P08581); test: competition of 125I-HGF/NK1 cross-linking to B5/589 cells by excess unlabeled HGF/NK1 or HGF/SF

[3H]-thymidine incorporation in B5/589 cells, percent of the maximal DNA synthesis elicited by HGF/SF (% of maximal HGF/SF response at 8 nM) [1]: 20
inhibition of HGF/SF mitogenic activity in the B5/589 bioassay: molar excess for ~50% reduction (fold molar excess over HGF/SF) [1]: 20
affinity for Met relative to full-length HGF/SF (fold of HGF/SF affinity) [2]: 0.25
Substance: HGF/NK1 (truncated HGF variant; N-terminal domain and first kringle domain), eukaryotically expressed from the pH46 (2.2 kb) coding region (from UniProt P14210 32-210) (ligand)
